# Laboratory results published in IntAct's records for PubMed 18854158.
# B1: Double-strand break repair protein rad32 (Schizosaccharomyces pombe (strain ATCC 38366 / 972)), Q09683 (parent)
# chain: MPNDPSDMNNELHNENTIRILISSDPHVGYGEKDPVRGNDSFVSFNEILEIARERDVDMILLGGDIFHDNKPSRKALYQALRSLRLNCLGDKPCELELLSDTSLTTGDTAVCNINYLDPNINVAIPVFSIHGNHDDPSGDGRYSALDILQVTGLVNYFGRVPENDNIVVSPILLQKGFTKLALYGISNVRDERLYHSFRENKVKFLRPDLYRDEWFNLLTVHQNHSAHTPTSYLPESFIQDFYDFVLWGHEHECLIDGSYNPTQKFTVVQPGSTIATSLSPGETAPKHCGILNITGKDFHLEKIRLRTVRPFIMKDIILSEVSSIPPMVENKKEVLTYLISKVEEAITEANAQWYEAQGTVPVVENEKPPLPLIRLRVDYTGGYQTENPQRFSNRFVGRVANATDVVQFYLKKKYTRSKRNDGLYTSAVEDIKINSLRVESLVNEYLKTNRLECLPEDSLGEAVVNFVEKDDRDAIKECVETQLNKQINLLVKKRVTEENLEQEISSIINDLPKISTTKRKDYEELPEEVSETSINIAEHTPVLKHTSSLLDHHSPLATSSSEHEMEATPSPALLKKTNKRRELPSSLTKKNTRTPQRSKEVKKVPARKLSQSTKKSDKNTQSTLLFYDPSSTTEAQYLDNEDDEILDD
# partner: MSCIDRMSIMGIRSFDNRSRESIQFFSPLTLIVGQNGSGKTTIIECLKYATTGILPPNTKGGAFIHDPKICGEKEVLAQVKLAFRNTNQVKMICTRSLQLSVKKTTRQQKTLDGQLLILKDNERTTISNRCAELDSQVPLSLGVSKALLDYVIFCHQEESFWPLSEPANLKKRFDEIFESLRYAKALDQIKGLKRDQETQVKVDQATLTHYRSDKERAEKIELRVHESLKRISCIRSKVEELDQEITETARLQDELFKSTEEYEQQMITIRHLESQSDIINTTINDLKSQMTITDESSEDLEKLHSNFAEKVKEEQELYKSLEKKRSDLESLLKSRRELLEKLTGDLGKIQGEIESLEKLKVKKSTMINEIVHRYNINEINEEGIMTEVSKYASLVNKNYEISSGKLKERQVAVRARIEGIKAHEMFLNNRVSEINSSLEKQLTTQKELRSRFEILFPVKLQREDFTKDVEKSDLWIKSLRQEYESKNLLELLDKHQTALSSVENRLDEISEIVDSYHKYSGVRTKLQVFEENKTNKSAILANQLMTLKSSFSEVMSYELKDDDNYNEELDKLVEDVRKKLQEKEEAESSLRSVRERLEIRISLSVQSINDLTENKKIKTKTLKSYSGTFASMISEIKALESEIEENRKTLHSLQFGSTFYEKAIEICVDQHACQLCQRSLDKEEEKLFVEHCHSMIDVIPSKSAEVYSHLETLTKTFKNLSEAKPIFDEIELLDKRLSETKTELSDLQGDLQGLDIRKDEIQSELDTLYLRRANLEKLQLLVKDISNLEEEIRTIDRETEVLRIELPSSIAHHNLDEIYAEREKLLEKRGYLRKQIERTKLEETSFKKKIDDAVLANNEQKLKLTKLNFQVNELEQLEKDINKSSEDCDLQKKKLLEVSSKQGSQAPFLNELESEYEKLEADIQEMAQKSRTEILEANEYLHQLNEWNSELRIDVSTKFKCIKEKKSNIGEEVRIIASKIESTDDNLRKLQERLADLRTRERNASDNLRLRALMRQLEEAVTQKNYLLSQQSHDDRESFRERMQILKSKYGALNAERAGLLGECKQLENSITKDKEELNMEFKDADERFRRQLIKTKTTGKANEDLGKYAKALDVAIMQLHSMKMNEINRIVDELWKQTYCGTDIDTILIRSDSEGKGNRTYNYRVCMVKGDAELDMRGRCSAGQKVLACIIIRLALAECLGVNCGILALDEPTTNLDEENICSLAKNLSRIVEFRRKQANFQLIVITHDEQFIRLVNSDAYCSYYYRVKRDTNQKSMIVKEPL
# B2: Double-strand break repair protein rad32 (Schizosaccharomyces pombe (strain ATCC 38366 / 972)), Q09683 (parent)
# chain: B1 chain
# partner: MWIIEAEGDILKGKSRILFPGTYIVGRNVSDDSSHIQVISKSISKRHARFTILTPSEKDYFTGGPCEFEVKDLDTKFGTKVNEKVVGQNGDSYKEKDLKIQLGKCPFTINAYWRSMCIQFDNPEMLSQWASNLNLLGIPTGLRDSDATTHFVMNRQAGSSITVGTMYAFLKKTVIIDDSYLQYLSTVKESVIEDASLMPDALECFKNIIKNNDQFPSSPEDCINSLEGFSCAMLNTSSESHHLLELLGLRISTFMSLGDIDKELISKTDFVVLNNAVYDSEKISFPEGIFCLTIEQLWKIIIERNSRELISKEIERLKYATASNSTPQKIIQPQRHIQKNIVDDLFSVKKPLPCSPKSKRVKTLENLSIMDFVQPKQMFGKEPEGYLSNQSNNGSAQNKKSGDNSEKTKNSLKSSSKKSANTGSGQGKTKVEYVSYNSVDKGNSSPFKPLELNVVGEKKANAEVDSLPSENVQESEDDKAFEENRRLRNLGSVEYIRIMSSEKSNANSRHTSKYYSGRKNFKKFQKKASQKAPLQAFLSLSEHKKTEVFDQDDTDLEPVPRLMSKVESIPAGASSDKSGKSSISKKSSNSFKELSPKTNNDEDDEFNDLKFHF
# Variants of: B1
# Settings: with rad50_schpo rad50, Q9UTJ8
row,Variant,effect of a mutation on the interaction
1,L77K;L154D,decreasing interaction

# Variants of: B2
# Settings: with nbs1_schpo nbs1, O43070
row,Variant,effect of a mutation on the interaction
1,L77K;L154D,decreasing interaction
